These results are taken from US20230203469A1.

Series [1] concerns the target recombinant VWF (full-length, multimeric rVWF), P04275.
In series [2] the target is T1, FRETS-VWF73 substrate, P04275.
T1 chain: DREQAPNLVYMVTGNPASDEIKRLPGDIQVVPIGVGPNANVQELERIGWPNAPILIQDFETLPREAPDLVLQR

B1: Q97R ADAMTS13 variant (protein)
chain: AAGGILHLELLVAVGPDVFQAHREDTERYVLTNLNIGAELLRDPSLGAQFRVHLVKMVILTEPEGAPNITANLTSSLLSVCGWSQTINPEDDTDPGHADLVLYITRFDLELPDGNRQVRGVTQLGGACSPTWSCLITEDTGFDLGVTIAHEIGHSFGLEHDGAPGSGCGPSGHVMASDGAAPRAGLAWSPCSRRQLLSLLSAGRARCVWDPPRPQPGSAGHPPDAQPGLYYSANEQCRVAFGPKAVACTFAREHLDMCQALSCHTDPLDQSSCSRLLVPLLDGTECGVEKWCSKGRCRSLVELTPIAAVHGRWSSWGPRSPCSRSCGGGVVTRRRQCNNPRPAFGGRACVGADLQAEMCNTQACEKTQLEFMSQQCARTDGQPLRSSPGGASFYHWGAAVPHSQGDALCRHMCRAIGESFIMKRGDSFLDGTRCMPSGPREDGTLSLCVSGSCRTFGCDGRMDSQQVWDRCQVCGGDNSTCSPRKGSFTAGRAREYVTFLTVTPNLTSVYIANHRPLFTHLAVRIGGRYVVAGKMSISPNTTYPSLLEDGRVEYRVALTEDRLPRLEEIRIWGPLQEDADIQVYRRYGEEYGNLTRPDITFTYFQPKPRQAWVWAAVRGPCSVSCGAGLRWVNYSCLDQARKELVETVQCQGSQQPPAWPEACVLEPCPPYWAVGDFGPCSASCGGGLRERPVRCVEAQGSLLKTLPPARCRAGAQQPAVALETCNPQPCPARWEVSEPSSCTSAGGAGLALENETCVPGADGLEAPVTEGPGSVDEKLPAPEPCVGMSCPPGWGHLDATSAGEKAPSPWGSIRTGAQAAHVWTPAAGSCSVSCGRGLMELRFLCMDSALRVPVQEELCGLASKPGSRREVCQAVPCPARWQYKLAACSVSCGRGVVRRILYCARAHGEDDGEEILLDTQCQGLPRPEPQEACSLEPCPPRWKVMSLGPCSASCGLGTARRSVACVQLDQGQDVEVDEAACAALVRPEASVPCLIADCTYRWHVGTWMECSVSCGDGIQRRRDTCLGPQAQAPVPADFCQHLPKPVTVRGCWAGPCVGQGTPSLVPHEEAAAPGRTTATPAGASLEWSQARGLLFSPAPQPRRLLPGPQENSVQSSACGRQHLEPTGTIDMRGPGQADCAVAIGRPLGEVVTLRVLESSLNCSAGDMLLLWGRLTWRKMCRKLLDMTFSSKTNTLVVRQRCGRPGGGVLLRYGSQLAPETFYRECDMQLFGPWGEIVSPSLSPATSNAGGCRLFINVAPHARIAIHALATNMGAGTEGANASYILIRDTHSLRTTAFHGQQVLYWESESSQAEMEFSEGFLKAQASLRGQYWTLQSWVPEMQDPQSWKGKEGT
Turning to B1, in series [1], the “Degradation of full-length rVWF under denaturing conditions (VWF multimer analysis)” value is “Comparable”. Also, in series [2], the Specific rADAMTS13 activity (activity per total protein by UV) amounted to 1740 IU/mg; the rADAMTS13 Activity (FRETS VWF73) came to 1370 IU/mL; the “specific activity (FRETS U/mg UV protein) against share of Q97R, regression” value was “suggesting that the Q^97R rADAMTS13 variant has similar activity to that of wildtype ADAMTS13”.

B2: Q97 ADAMTS13 (wildtype recombinant ADAMTS13) (protein)
chain: AAGGILHLELLVAVGPDVFQAHQEDTERYVLTNLNIGAELLRDPSLGAQFRVHLVKMVILTEPEGAPNITANLTSSLLSVCGWSQTINPEDDTDPGHADLVLYITRFDLELPDGNRQVRGVTQLGGACSPTWSCLITEDTGFDLGVTIAHEIGHSFGLEHDGAPGSGCGPSGHVMASDGAAPRAGLAWSPCSRRQLLSLLSAGRARCVWDPPRPQPGSAGHPPDAQPGLYYSANEQCRVAFGPKAVACTFAREHLDMCQALSCHTDPLDQSSCSRLLVPLLDGTECGVEKWCSKGRCRSLVELTPIAAVHGRWSSWGPRSPCSRSCGGGVVTRRRQCNNPRPAFGGRACVGADLQAEMCNTQACEKTQLEFMSQQCARTDGQPLRSSPGGASFYHWGAAVPHSQGDALCRHMCRAIGESFIMKRGDSFLDGTRCMPSGPREDGTLSLCVSGSCRTFGCDGRMDSQQVWDRCQVCGGDNSTCSPRKGSFTAGRAREYVTFLTVTPNLTSVYIANHRPLFTHLAVRIGGRYVVAGKMSISPNTTYPSLLEDGRVEYRVALTEDRLPRLEEIRIWGPLQEDADIQVYRRYGEEYGNLTRPDITFTYFQPKPRQAWVWAAVRGPCSVSCGAGLRWVNYSCLDQARKELVETVQCQGSQQPPAWPEACVLEPCPPYWAVGDFGPCSASCGGGLRERPVRCVEAQGSLLKTLPPARCRAGAQQPAVALETCNPQPCPARWEVSEPSSCTSAGGAGLALENETCVPGADGLEAPVTEGPGSVDEKLPAPEPCVGMSCPPGWGHLDATSAGEKAPSPWGSIRTGAQAAHVWTPAAGSCSVSCGRGLMELRFLCMDSALRVPVQEELCGLASKPGSRREVCQAVPCPARWQYKLAACSVSCGRGVVRRILYCARAHGEDDGEEILLDTQCQGLPRPEPQEACSLEPCPPRWKVMSLGPCSASCGLGTARRSVACVQLDQGQDVEVDEAACAALVRPEASVPCLIADCTYRWHVGTWMECSVSCGDGIQRRRDTCLGPQAQAPVPADFCQHLPKPVTVRGCWAGPCVGQGTPSLVPHEEAAAPGRTTATPAGASLEWSQARGLLFSPAPQPRRLLPGPQENSVQSSACGRQHLEPTGTIDMRGPGQADCAVAIGRPLGEVVTLRVLESSLNCSAGDMLLLWGRLTWRKMCRKLLDMTFSSKTNTLVVRQRCGRPGGGVLLRYGSQLAPETFYRECDMQLFGPWGEIVSPSLSPATSNAGGCRLFINVAPHARIAIHALATNMGAGTEGANASYILIRDTHSLRTTAFHGQQVLYWESESSQAEMEFSEGFLKAQASLRGQYWTLQSWVPEMQDPQSWKGKEGT
For B2, the “Degradation of full-length rVWF under denaturing conditions (VWF multimer analysis)” value in series [1] was “Comparable”. In addition, in series [2], the Specific rADAMTS13 activity (activity per total protein by UV) amounted to 1750 IU/mg and the rADAMTS13 Activity (FRETS VWF73) is 2210 IU/mL.
